This is an account of results in patent US6380375B1, “DNA encoding monkey gonadotropin releasing hormone receptor” (Merck & Co., Inc., priority 1999, dated 2002).

Assay [1] has as its target monkey gonadotropin-releasing hormone (GnRH) receptor (monkey). The assay can be described thus: whole cell radioligand binding, best CHO-K1 clone expressing the monkey GnRH receptor.
The target is the same in assay [2]. The assay can be described thus: whole cell radioligand binding, eight of the 96 neoR CHO-K1 clones screened.
Assay [3] has the same target. The assay can be described thus: cell-based or functional assay.
For assay [4], the system named is monkey GnRH receptor. The assay can be described thus: Aequorin bioluminescence assay in CHO-K1 cells stably co-expressing the monkey GnRH receptor and apo-aequorin. It counts as cell-based. Particulars: CHO-K1 cells co-expressing monkey GnRHR and apo-aequorin; P1/(P1+P2) response. The method, then:
To construct this dual stable cell line, the 600 bp aeq gene was cut out by EcoRI and KpnI from pcDNA3.aeq, and inserted into pIRES1hyg (Clontech Laboratories, Palo Alto, Calif.) at BamHI that was blunt-ended. The positive clones were identified by colony-hybridization using the probe of aeq. The new construct that contained aeq and hyg was transfected into monkey GnRHR-CHO-K1 cells (as Example 5). The transfectants were selected by 600 μg/ml hygromycin (Boehringer Mannheim, Indianapolis, Ind.) for 10 days, and 480 hyg^r colonies were transferred into 96-well plates. These clones were assayed for aequorin by the aequorin bioluminescence assay as described in Example 7, and many positive clones were identified. […] This clone was single cell isolated, and used for the functional evaluation of the monkey GnRH receptor by the aequorin assay.
The aequorin assay has been widely used to monitor the changes in the cytosolic Ca^2+ concentration caused by the activation of the G-protein coupled receptors. […] The plate was read immediately in a Bioluminomitor (Lumino Skan RS) for 30 seconds. […] The remaining unreacted aequorin was determined by lysing the cells with 0.1% Triton X-100 (Sigma, St. Louis, Mo.). […] The percentage of aequorin which responded to GnRH challenge was calculated as P1/(P1+P2). […]

The subject of assay [5] is monkey GnRH receptor. Nature of the assay: Phosphoinositide (PI) turnover assay in CHO-K1 cells stably expressing the monkey GnRH receptor. The class given is cell-based. Conditions: monkey GnRHR-CHO-K1 cells, 37° C., 1 hour, FIG. 7; read-out: EC50 of GnRH-stimulated PI turnover. The method, then:
The ORF of the monkey GnRH receptor was subcloned into a polycistronic expression vector pIRES1.neo (Clontech Laboratories, Palo Alto, Calif.) to generate cells that stably express these receptors. In this vector, the cloned receptor cDNA and the neo gene were transcribed into one mRNA. The plasmid DNA of pIRES1.neo-mkGnRHR was transfected into CHO-K1 cells using the method of lipofectin. Transfection was carried out for overnight and the cells were split 48 hours later. G418 at 1 mg/ml was added 24 hours after splitting, and its concentration was increased to 2 mg/ml in 2-3 days. After 10 days selection by G418, colonies were picked and transferred to 24-well plates. The monkey GnRH receptor expression clones were screened by the whole cell binding assay using a radiolabeled peptide agonist of GnRH, 5-(^125Iodo-Tyr)-Buserelin (Woods Assay, Portland, Oreg.). […] After single cell isolation, the membrane from this clone was prepared, and the membrane binding assay was performed using ^125I-buserelin. […] The GnRH-stimulated PI turnover was also performed.
CHO-K1 cells stably expressing the monkey GnRH receptor are functionally coupled to phospholipase C. […] The eluate was then counted in a scintillation counter.

As to 5-(125Iodo-Tyr)-Buserelin (peptide), in assay [1], the fold above the background worked out at 5 fold and the specific binding activity stood at 645 cpm. In assay [2], this molecule displayed a specific binding, fold above the non-specific binding of 3 fold.

B1: Gonadotropin-releasing hormone (peptide)
peptide: QHWSYGLRPGGKRDAENLIDSFQEIVKEVGQLAETQRFECTTHQPRSPLRDLKGALESLIEEETGQKKI
notes: neuronal decapeptide hormone released from hypothalamus; obtained from a vendor and used as agonist
Take B1: in assay [3], the GnRH-stimulated PI turnover, EC50 was found to be 0.43 nM; the aequorin bioluminescence assay, AUC for P1 came to 1290; the aequorin bioluminescence assay, EC50 of GnRH came to 2 nM; the aequorin bioluminescence assay, P1/(P1+P2) ratio was 71%. The molecule also had an EC50 in assay [4] of 2 nM. In addition, the EC50 in assay [5] stood at 0.43 nM.
